{"source": "paper PMC5560778", "molecules": {"B1": {"name": "WT NaV β3 subunit (natural protein)", "chain": "FPVCVEVPSETEAVQGNPMKLRCISCMKREEVEATTVVEWFYRPEGGKDFLIYEYRNGHQEVESPFQGRLQWNGSKDLQDVSITVLNVTLNDSGLYTCNVSREFEFEAHRPFVKTTRLIPLRVTEEAGEDFTSVVSEIMMYILLVFLTLWLLIEMIYCYRKVSKAEEAAQENASDYLAIPSENKENSAVPVEE"}}, "key": {"[1]": {"molecular_target": "NaV1.5 α subunit, DIV voltage clamp fluorometry construct (S1618C), labelled with MTS-TAMRA (human) (UniProt Q14524)"}, "[2]": {"molecular_target": "NaV1.5 α subunit, DIII LFS voltage clamp fluorometry construct (M1296C), labelled with MTS-TAMRA (human) (UniProt Q14524)"}, "[3]": {"molecular_target": "NaV1.5 α subunit, DIII LFS voltage clamp fluorometry construct (M1296C), labelled with MTS-TAMRA (human) (UniProt Q14524)", "remark": "listed apart in the source"}, "[4]": {"molecular_target": "A1330W mutant NaV1.5 channel in the DIII-M1296C VCF construct, labelled with MTS-TAMRA (human) (UniProt Q14524)"}}, "data": [{"molecule": "WT NaV β1 subunit (from UniProt Q07699-1 19-218) (natural protein)", "values": [{"measurement": "depolarizing shift of the DIV F-V curve (voltage clamp fluorometry in oocytes), α with β1 against α alone", "setting": "[1]", "value": 31.3, "unit": "mV"}]}, {"molecule": "β3-NTM β1-C chimera", "values": [{"measurement": "depolarizing shift of the DIII F-V curve (voltage clamp fluorometry in oocytes), α with chimera against α alone", "setting": "[2]", "value": 22.9, "unit": "mV"}]}, {"molecule": "B1", "values": [{"measurement": "depolarizing shift of the DIII F-V curve (voltage clamp fluorometry in oocytes), α with β3 against α alone", "setting": "[3]", "value": 20.7, "unit": "mV"}, {"measurement": "depolarizing shift of the DIII F-V curve (voltage clamp fluorometry in oocytes), A1330W with β3 against A1330W alone", "setting": "[4]", "value": 22.6, "unit": "mV"}]}]}
